Test results from patent US20260266848A1, “COMPOSITIONS AND METHODS FOR DIAGNOSING AND TREATING DYSTONIA” (Duke University, priority 2023, published 2026).

B1: SEC31A (protein, UniProt O94979 1-1220, looked up)
Protein transport protein …: MKLKEVDRTAMQAWSPAQNHPIYLATGTSAQQLDATFSTNASLEIFELDLSDPSLDMKSCATFSSSHRYHKLIWGPYKMDSKGDVSGVLIAGGENGNIILYDPSKIIAGDKEVVIAQNDKHTGPVRALDVNIFQTNLVASGANESEIYIWDLNNFATPMTPGAKTQPPEDISCIAWNRQVQHILASASPSGRATVWDLRKNEPIIKVSDHSNRMHCSGLAWHPDVATQMVLASEDDRLPVIQMWDLRFASSPLRVLENHARGILAIAWSMADPELLLSCGKDAKILCSNPNTGEVLYELPTNTQWCFDIQWCPRNPAVLSAASFDGRISVYSIMGGSTDGLRQKQVDKLSSSFGNLDPFGTGQPLPPLQIPQQTAQHSIVLPLKKPPKWIRRPVGASFSFGGKLVTFENVRMPSHQGAEQQQQQHHVFISQVVTEKEFLSRSDQLQQAVQSQGFINYCQKKIDASQTEFEKNVWSFLKVNFEDDSRGKYLELLGYRKEDLGKKIALALNKVDGANVALKDSDQVAQSDGEESPAAEEQLLGEHIKEEKEESEFLPSSGGTFNISVSGDIDGLITQALLTGNFESAVDLCLHDNRMADAIILAIAGGQELLARTQKKYFAKSQSKITRLITAVVMKNWKEIVESCDLKNWREALAAVLTYAKPDEFSALCDLLGTRLENEGDSLLQTQACLCYICAGNVEKLVACWTKAQDGSHPLSLQDLIEKVVILRKAVQLTQAMDTSTVGVLLAAKMSQYANLLAAQGSIAAALAFLPDNTNQPNIMQLRDRLCRAQGEPVAGHESPKIPYEKQQLPKGRPGPVAGHHQMPRVQTQQYYPHGENPPPPGFIMHGNVNPNAAGQLPTSPGHMHTQVPPYPQPQPYQPAQPYPFGTGGSAMYRPQQPVAPPTSNAYPNTPYISSASSYTGQSQLYAAQHQASSPTSSPATSFPPPPSSGASFQHGGPGAPPSSSAYALPPGTTGTLPAASELPASQRTGPQNGWNDPPALNRVPKKKKMPENFMPPVPITSPIMNPLGDPQSQMLQQQPSAPVPLSSQSSFPQPHLPGGQPFHGVQQPLGQTGMPPSFSKPNIEGAPGAPIGNTFQHVQSLPTKKITKKPIPDEHLILKTTFEDLIQRCLSSATDPQTKRKLDDASKRLEFLYDKLREQTLSPTITSGLHNIARSIETRNYSEGLTMHTHIVSTSNFSETSAFMPVLKVVLTQANKLGV
B2: ANO6 (protein, UniProt Q4KMQ2 1-910, looked up)
Anoctamin-6: MKKMSRNVLLQMEEEEDDDDGDIVLENLGQTIVPDLGSLESQHDFRTPEFEEFNGKPDSLFFNDGQRRIDFVLVYEDESRKETNKKGTNEKQRRKRQAYESNLICHGLQLEATRSVLDDKLVFVKVHAPWEVLCTYAEIMHIKLPLKPNDLKNRSSAFGTLNWFTKVLSVDESIIKPEQEFFTAPFEKNRMNDFYIVDRDAFFNPATRSRIVYFILSRVKYQVINNVSKFGINRLVNSGIYKAAFPLHDCKFRRQSEDPSCPNERYLLYREWAHPRSIYKKQPLDLIRKYYGEKIGIYFAWLGYYTQMLLLAAVVGVACFLYGYLNQDNCTWSKEVCHPDIGGKIIMCPQCDRLCPFWKLNITCESSKKLCIFDSFGTLVFAVFMGVWVTLFLEFWKRRQAELEYEWDTVELQQEEQARPEYEARCTHVVINEITQEEERIPFTAWGKCIRITLCASAVFFWILLIIASVIGIIVYRLSVFIVFSAKLPKNINGTDPIQKYLTPQTATSITASIISFIIIMILNTIYEKVAIMITNFELPRTQTDYENSLTMKMFLFQFVNYYSSCFYIAFFKGKFVGYPGDPVYWLGKYRNEECDPGGCLLELTTQLTIIMGGKAIWNNIQEVLLPWIMNLIGRFHRVSGSEKITPRWEQDYHLQPMGKLGLFYEYLEMIIQFGFVTLFVASFPLAPLLALVNNILEIRVDAWKLTTQFRRLVPEKAQDIGAWQPIMQGIAILAVVTNAMIIAFTSDMIPRLVYYWSFSVPPYGDHTSYTMEGYINNTLSIFKVADFKNKSKGNPYSDLGNHTTCRYRDFRYPPGHPQEYKHNIYYWHVIAAKLAFIIVMEHVIYSVKFFISYAIPDVSKRTKSKIQREKYLTQKLLHENHLKDMTKNMGVIAERMIEAVDNNLRPKSE
B3: PITPNB (protein, UniProt P48739 1-271, looked up)
Phosphatidylinositol transfer …: MVLIKEFRVVLPCSVQEYQVGQLYSVAEASKNETGGGEGIEVLKNEPYEKDGEKGQYTHKIYHLKSKVPAFVRMIAPEGSLVFHEKAWNAYPYCRTIVTNEYMKDDFFIKIETWHKPDLGTLENVHGLDPNTWKTVEIVHIDIADRSQVEPADYKADEDPALFQSVKTKRGPLGPNWKKELANSPDCPQMCAYKLVTIKFKWWGLQSKVENFIQKQEKRIFTNFHRQLFCWIDKWIDLTMEDIRRMEDETQKELETMRKRGSVRGTSAADV
B4: RBM3 (protein, UniProt P98179 1-157, looked up)
RNA-binding protein 3: MSSEEGKLFVGGLNFNTDEQALEDHFSSFGPISEVVVVKDRETQRSRGFGFITFTNPEHASVAMRAMNGESLDGRQIRVDHAGKSARGTRGGGFGAHGRGRSYSRGGGDQGYGSGRYYDSRPGGYGYGYGRSRDYNGRNQGGYDRYSGGNYRDNYDN

Test system: DYT1 patient plasma derived EVs
Assay: Plasma-derived EV proteomics (ExoQuick ULTRA, DIA LC/MS/MS), DYT1 vs Healthy Controls
Parameters: species or system human
Settings: Hs. Plasma EVs (DYT1/WT); significance of genotype difference
Experimental: Data was obtained for extracellular vesicles using previously acquired samples. The ExoQuick® ULTRA EV Isolation System was used to fractionate and enrich EVs from plasma. Isolated plasma EV samples were then submitted to proteomic analysis by the Duke Proteomics and Metabolomics Core Facility (DPMCF). At the DPMCF, quantitative (LC/MS/MS) was performed on 500 ng of each sample, using an EvoSep One UPLC system coupled to a Thermo Orbitrap Astral high-resolution accurate mass tandem mass spectrometer (Thermo). Briefly, the sample was eluted directly from an Evotip which was subjected to a low organic wash and then subjected to an analytical separation using a 1.7 μm EvoSep 150 um ID×15 cm endurance (EveoSep) column running an SPD30 gradient from approximately 5 to 30% acetonitrile with 0.1% formic acid with a column temperature of 50 C. Data collection on the Orbitrap Astral mass spectrometer was performed in a data-independent acquisition (DIA) mode of acquisition with a r=240,000 (@m/z 200) full MS scan from m/z 380-980 with a target AGC value of 4e5 ions. Fixed DIA, windows of 4 m/z from m/z 380 to 980 DIA MS/MS scans were acquired in the Astral with a target AGC value of 5e4 and a max fill time of 6 ms. HCD collision energy setting of 27% was used for all MS2 scans.

| Molecule | -LogP |
| --- | --- |
| B1 | 1.85 |
| B2 | 1.411 |
| B3 | 1.575 |
| B4 | 2.179 |
